Results on twelve sequences are retold here after the supplement of paper PMC5998384.

For series [1], the system named is HeLa Kyoto. Description: solubility change mitosis vs G1/S (difference of NP-40 vs SDS log2 ratios) (log2 ratio difference); higher = more soluble in mitosis.
Series [2] relates to HeLa Kyoto. Description: solubility in G1/S (NP-40 vs SDS abundance) (log2 ratio); higher = more soluble. The conditions noted are these: cell cycle stage: G1/S.
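For solubility change mitosis vs G1/S (difference of NP-40 vs SDS log2 ratios) in this document: synchronized HeLa Kyoto cells (double thymidine block for G1/S, nocodazole release for mitosis), protein amounts in NP-40 versus SDS lysates quantified by mass spectrometry, three biological replicates.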
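For solubility in G1/S (NP-40 vs SDS abundance) in this document: HeLa Kyoto cells arrested at G1/S by double thymidine block, proteins quantified by TMT10plex mass spectrometry in mild NP-40 versus SDS extracts, three biological replicates.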

Turning to “MADPVAGIAGSAAKSVRPFRSSEAYVEAMKEDLAEWLNALYGLGLPGGGDGFLTGLATGTTLCQHANAVTEAARALAAARPARGVAFQAHSVVPGSFMARDNVATFIGWCRVELGVPEVLMFETEDLVLRKNEKSVVLCLLEVARRGARLGLLAPRLVQFEQEIERELRAAPPAPNAPAAGEDTTETAPAPGTPARGPRMTPSDLRNLDELVREILGRCTCPDQFPMIKVSEGKYRVGDSSLLIFVRVLRSHVMVRVGGGWDTLEHYLDKHDPCRCSSTAHRPPQPRVCTFSPQRVSPTTSPRPASPVPGSERRGSRPEMTPVSLRSTKEGPETPPRPRDQLPPHPRSRRYSGDSDSSASSAQSGPLGTRSDDTGTGPRRERPSRRLTTGTPASPRRPPALRSQSRDRLDRGRPRGAPGGRGAQLSVPSPARRARSQSREEQAVLLVRRDRDGQHSWVPRGRGSGGSGRSTPQTPRARSPAAPRLSRVSSPSPELGTTPASIFRTPLQLDPQQEQQLFRRLEEEFLANARALEAVASVTPTGPVPDPARAPDPPAPDSAYCSSSSSSSSLSVLGGKCGQPGDSGRTANGLPGPRSQALSSSSDEGSPCPGMGGPLDAPGSPLACTEPSRTWARGRMDTQPDRKPSRIPTPRGPRRPSGPAELGTWHALHSVTPRAEPDSWM [GAS2L1]”, the “solubility change mitosis (log2)” value with HeLa Kyoto [1] was found to be 0.169. Moreover, in the series with HeLa Kyoto [2], the “solubility in G1/S (log2)” value is 0.282.
For “MAEASSANLGSGCEEKRHEGSSSESVPPGTTISRVKLLDTMVDTFLQKLVAAGSYQRFTDCYKCFYQLQPAMTQQIYDKFIAQLQTSIREEISDIKEEGNLEAVLNALDKIVEEGKVRKEPAWRPSGIPEKDLHSVMAPYFLQQRDTLRRHVQKQEAENQQLADAVLAGRRQVEELQLQVQAQQQAWQALHREQRELVAVLREPE [PMF1]”, in the series on HeLa Kyoto [1], the “solubility change mitosis (log2)” value was 0.643. The “solubility in G1/S (log2)” value in the series with HeLa Kyoto [2] stood at 0.135.
As to “MAEDEPDAKSPKTGGRAPPGGAEAGEPTTLLQRLRGTISKAVQNKVEGILQDVQKFSDNDKLYLYLQLPSGPTTGDKSSEPSTLSNEEYMYAYRWIRNHLEEHTDTCLPKQSVYDAYRKYCESLACCRPLSTANFGKIIREIFPDIKARRLGGRGQSKYCYSGIRRKTLVSMPPLPGLDLKGSESPEMGPEVTPAPRDELVEAACALTCDWAERILKRSFSSIVEVARFLLQQHLISARSAHAHVLKAMGLAEEDEHAPRERSSKPKNGLENPEGGAHKKPERLAQPPKDLEARTGAGPLARGERKKSVVESSAPGANNLQVNALVARLPLLLPRAPRSLIPPIPVSPPILAPRLSSGALKVATLPLSSRAGAPPAAVPIINMILPTVPALPGPGPGPGRAPPGGLTQPRGTENREVGIGGDQGPHDKGVKRTAEVPVSEASGQAPPAKAAKQDIEDTASDAKRKRGRPRKKSGGSGERNSTPLKSAAAMESAQSSRLPWETWGSGGEGNSAGGAERPGPMGEAEKGAVLAQGQGDGTVSKGGRGPGSQHTKEAEDKIPLVPSKVSVIKGSRSQKEAFPLAKGEVDTAPQGNKDLKEHVLQSSLSQEHKDPKATPP [RFX5]”, the “solubility change mitosis (log2)” value in the series on HeLa Kyoto [1] was -0.117. The “solubility in G1/S (log2)” value in the series on HeLa Kyoto [2] was determined as 0.487.
For “MAEGGGPEPGEQERRSSGPRPPSARDLQLALAELYEDEVKCKSSKSNRPKATVFKSPRTPPQRFYSSEHEYSGLNIVRPSTGKIVNELFKEAREHGAVPLNEATRASGDDKSKSFTGGGYRLGSSFCKRSEYIYGENQLQDVQILLKLWSNGFSLDDGELRPYNEPTNAQFLESVKRGEIPLELQRLVHGGQVNLDMEDHQDQEYIKPRLRFKAFSGEGQKLGSLTPEIVSTPSSPEEEDKSILNAVVLIDDSVPTTKIQIRLADGSRLIQRFNSTHRILDVRNFIVQSRPEFAALDFILVTSFPNKELTDESLTLLEADILNTVLLQQLK [UBXN2B]”, in that order: 0.053 and 0.562.
In the same order, the values of “MAEGSRGGPTCSGVGGRQDPVSGSGGCNFPEYELPELNTRAFHVGAFGELWRGRLRGAGDLSLREPPASALPGSQAADSDREDAAVARDLDCSLEAAAELRAVCGLDKLKCLEDGEDPEVIPENTDLVTLGVRKRFLEHREETITIDRACRQETFVYEMESHAIGKKPENSADMIEEGELILSVNILYPVIFHKHKEHKPYQTMLVLGSQKLTQLRDSIRCVSDLQIGGEFSNTPDQAPEHISKDLYKSAFFYFEGTFYNDKRYPECRDLSRTIIEWSESHDRGYGKFQTARMEDFTFNDLCIKLGFPYLYCHQGDCEHVIVITDIRLVHHDDCLDRTLYPLLIKKHWLWTRKCFVCKMYTARWVTNNDSFAPEDPCFFCDVCFRMLHYDSEGNKLGEFLAYPYVDPGTFN [SNAPC3]” are -0.167 and -0.0618.
For the sequence “MAELGEADEAELQRLVAAEQQKAQFTAQVHHFMELCWDKCVEKPGNRLDSRTENCLSSCVDRFIDTTLAITSRFAQIVQKGGQ [TIMM8B]”, the “solubility change mitosis (log2)” value in the series with HeLa Kyoto [1] stood at 0.734. In addition, in the series on HeLa Kyoto [2], the “solubility in G1/S (log2)” value was -0.938.
For “MAEPGEGLPEEVLALIFRHLSLRDRAAAARVCRAWAAAATCSAVWHDTKISCECELEGMLPPYLSACLDHIHNLRLEFEPSRKPSRRAAIELLMVLAGRAPGLRGLRLECRGEKPLFDAGRDVLEAVHAVCGAASQLRHLDLRRLSFTLDDALVLQAARSCPELHSLFLDNSTLVGSVGPGSVLELLEACPRLRALGLHLASLSHAILEALAAPDRAPFALLALRCACPEDARASPLPNEAWVALRRRHPGLAVELELEPALPAESVTRVLQPAVPVAALRLNLSGDTVGPVRFAAHHYAATLCALEVRAAASAELNAALEELAARCAALREVHCFCVVSHSVLDAFRAHCPRLRTYTLKLTREPHPWRPTLVA [FBXL8]”, in that order: -0.0843 and -0.196.
In the same order, the values of “MAESGGSSGGAGGGGAFGAGPGPERPNSTADKNGALKCTFSAPSHSTSLLQGLATLRAQGQLLDVVLTINREAFPAHKVVLAACSDYFRAMFTGGMREASQDVIELKGVSARGLRHIIDFAYSAEVTLDLDCVQDVLGAAVFLQMLPVVELCEEFLKAAMSVETCLNIGQMATTFSLASLRESVDAFTFRHFLQIAEEEDFLRLPLERLVFFLQSNRLQSCAEIDLFRAAVRWLQHDPARRPRASHVLCHIRFPLMQSSELVDSVQTLDIMVEDVLCRQYLLEAFNYQVLPFRQHEMQSPRTAVRSDVPSLVTFGGTPYTDSDRSVSSKVYQLPEPGARHFRELTEMEVGCSHTCVAVLDNFVYVAGGQHLQYRSGEGAVDACYRYDPHLNRWLRLQAMQESRIQFQLNVLCGMVYATGGRNRAGSLASVERYCPRRNEWGYACSLKRRTWGHAGAASGGRLYISGGYGISVEDKKALHCYDPVADQWEFKAPMSEPRVLHAMVGAGGRIYALGGRMDHVDRCFDVLAVEYYVPETDQWTSVSPMRAGQSEAGCCLLERKIYIVGGYNWRLNNVTGIVQVYNTDTDEWERDLHFPESFAGIACAPVLLPRAGTRR [KLHL26]” are -0.0565 and -0.0553.
For “MAETKIIYHMDEEETPYLVKLPVAPERVTLADFKNVLSNRPVHAYKFFFKSMDQDFGVVKEEIFDDNAKLPCFNGRVVSWLVLAEGAHSDAGSQGTDSHTDLPPPLERTGGIGDSRPPSFHPNVASSRDGMDNETGTESMVSHRRERARRRNREEAARTNGHPRGDRRRDVGLPPDSASTALSSELESSSFVDSDEDGSTSRLSSSTEQSTSSRLIRKHKRRRRKQRLRQADRASSFSSITDSTMSLNIVTVTLNMERHHFLGISIVGQSNDRGDGGIYIGSIMKGGAVAADGRIEPGDMLLQVNDVNFENMSNDDAVRVLREIVSQTGPISLTVAKCWDPTPRSYFTVPRADPVRPIDPAAWLSHTAALTGALPRYGTSPCSSAVTRTSSSSLTSSVPGAPQLEEAPLTVKSDMSAVVRVMQLPDSGLEIRDRMWLKITIANAVIGADVVDWLYTHVEGFKERREARKYASSLLKHGFLRHTVNKITFSEQCYYVFGDLCSNLATLNLNSGSSGTSDQDTLAPLPHPAAPWPLGQGYPYQYPGPPPCFPPAYQDPGFSYGSGSTGSQQSEGSKSSGSTRSSRRAPGREKERRAAGAGGSGSESDHTAPSGVGSSWRERPAGQLSRGSSPRSQASATAPGLPPPHPTTKAYTVVGGPPGGPPVRELAAVPPELTGSRQSFQKAMGNPCEFFVDIM [DVL1]”, in that order: 0.0447 and -0.0781.
For “MAGAATGSRTPGRSELVEGCGWRCPEHGDRVAELFCRRCRRCVCALCPVLGAHRGHPVGLALEAAVHVQKLSQECLKQLAIKKQQHIDNITQIEDATEKLKANAESSKTWLKGKFTELRLLLDEEEALAKKFIDKNTQLTLQVYREQADSCREQLDIMNDLSNRVWSISQEPDPVQRLQAYTATEQEMQQQMSLGELCHPVPLSFEPVKSFFKGLVEAVESTLQTPLDIRLKESINCQLSDPSSTKPGTLLKTSPSPERSLLLKYARTPTLDPDTMHARLRLSADRLTVRCGLLGSLGPVPVLRFDALWQVLARDCFATGRHYWEVDVQEAGAGWWVGAAYASLRRRGASAAARLGCNRQSWCLKRYDLEYWAFHDGQRSRLRPRDDLDRLGVFLDYEAGVLAFYDVTGGMSHLHTFRATFQEPLYPALRLWEGAISIPRLP [TRIM14]”, the “solubility change mitosis (log2)” value in the series on HeLa Kyoto [1] is -0.0649. Further, the “solubility in G1/S (log2)” value in the series on HeLa Kyoto [2] was -0.209.
In the case of “MAGAGGQHHPPGAAGGAAAGAGAAVTSAAASAGPGEDSSDSEAEQEGPQKLIRKVSTSGQIRTKTSIKEGQLLKQTSSFQRWKKRYFKLRGRTLYYAKDSKSLIFDEVDLSDASVAEASTKNANNSFTIITPFRRLMLCAENRKEMEDWISSLKSVQTREPYEVAQFNVEHFSGMHNWYACSHARPTFCNVCRESLSGVTSHGLSCEVCKFKAHKRCAVRATNNCKWTTLASIGKDIIEDEDGVAMPHQWLEGNLPVSAKCAVCDKTCGSVLRLQDWKCLWCKTMVHTACKDLYHPICPLGQCKVSIIPPIALNSTDSDGFCRATFSFCVSPLLVFVNSKSGDNQGVKFLRRFKQLLNPAQVFDLMNGGPHLGLRLFQKFDNFRILVCGGDGSVGWVLSEIDKLNLNKQCQLGVLPLGTGNDLARVLGWGGSYDDDTQLPQILEKLERASTKMLDRWSIMTYELKLPPKASLLPGPPEASEEFYMTIYEDSVATHLTKILNSDEHAVVISSAKTLCETVKDFVAKVEKTYDKTLENAVVADAVASKCSVLNEKLEQLLQALHTDSQAAPVLPGLSPLIVEEDAVESSSEESLGESKEQLGDDVTKPSSQKAVKPREIMLRANSLKKAVRQVIEEAGKVMDDPTVHPCEPANQSSDYDSTETDESKEEAKDDGAKESITVKTAPRSPDARASYGHSQTDSVPGPAVAASKENLPVLNTRIICPGLRAGLAASIAGSSIINKMLLANIDPFGATPFIDPDLDSVDGYSEKCVMNNYFGIGLDAKISLEFNNKREEHPEKCRSRTKNLMWYGVLGTRELLQRSYKNLEQRVQLECDGQYIPLPSLQGIAVLNIPSYAGGTNFWGGTKEDDIFAAPSFDDKILEVVAIFDSMQMAVSRVIKLQHHRIAQCRTVKITIFGDEGVPVQVDGEAWVQPPGIIKIVHKNRAQMLTRDRAFESTLKSWEDKQKCDSGKPVLRTHLYIHHAIDLATEEVSQMQLCSQAAEELITRICDAATIHCLLEQELAHAVNACSHALNKANPRCPESLTRDTATEIAINVKALYNETESLLVGRVPLQLESPHEERVSNALHSVEVELQKLTEIPWLYYILHPNEDEEPPMDCTKRNNRSTVFRIVPKFKKEKVQKQKTSSQPVQKWGTEEVAAWLDLLNLGEYKDIFIRHDIRGAELLHLERRDLKDLGIPKVGHVKRILQGIKELGRSTPQSEV [DGKH]”, the “solubility change mitosis (log2)” value in the series on HeLa Kyoto [1] turned out to be 0.0195. In addition, the “solubility in G1/S (log2)” value in the series with HeLa Kyoto [2] was -0.212.
Turning to “MAGEEINEDYPVEIHEYLSAFENSIGAVDEMLKTMMSVSRNELLQKLDPLEQAKVDLVSAYTLNSMFWVYLATQGVNPKEHPVKQELERIRVYMNRVKEITDKKKAGKLDRGAASRFVKNALWEPKSKNASKVANKGKSKS [C1D]”, the “solubility change mitosis (log2)” value in the series with HeLa Kyoto [1] was 0.679. Further, the “solubility in G1/S (log2)” value in the series with HeLa Kyoto [2] was -0.223.
